16 proteins from patent publication US20250027068 can be followed below.

B1: PRT-186 (protein)
chain: MANQEIRYSEVTPYHVTSVWTKGVTPPANFRKIVDGNIAYYHAPYVANQGWYDITKTFNGKDDLLCGAATAGNMLHWWFDQNKDQIKRYLEEHPEKQKINFNGEQMFDVKEAIDTKNHQLDSKLFEYFKEKAFPYLSTKHLGVFPDHVIDMFINGYRLSLTNHGPTPVKEGSKDPRGGIFDAVFTRGDQSKLLTSRHDFKEKNLKEISDLIKKELTEGKALGLSHTYANVRINHVINLWGADFDSNGNLKAIYVTDSDSNASIGMKKYFVGVNSAGKVAISAKEIKEDNIGAQVLGLFTLSTGQDSWNQTN
B2: PRT-175 (protein)
chain: MANQEIRYSEVTPYHITSVWTKGVTPPTDFTQGEDVFHAPYKANQGWYDITKTFNGKDDLLCGAATAGNMLHWWFDQNKTQIERYLKKHPEKQKINFNGEQMFDVKEAIDTKNSQTNSELFNYFKEKAFPYLSTKHLGVFPDHVIDMFINGYRLSLTNHGPTPVKRQSKDPRGGIFDAVFTRGDQSKLLTSRHDFKEKTLNEISQLIKQELTEGKALGLSHTYANVRINHVINLWGADFDAEGNLEAIYVTDSDSNASIGMKKYFVGVNSAGKVAISAKEIKEDNIGAQVLGLFTLSTGKDSWEKTN
B3: PRT-178 (protein)
chain: MANQEIRYSEVTPYHVTSVWTKGVTPPANFTQGEDVFHAPYVANQGWYDITKTFNGKDDLLCGAATAGNMLHWWFDQNKDQIKRYLEEHPEKQKIIFNNQELFDLKAAIDTKNHQLDSKLFEYFKEKAFPYLSTKHLGVFPDHVIDMFINGYRLSLTNHGPTPVKEGSKDPRGGIFDAVFTRGDQSKLLTSRHDFKEKNLKEISDLIKKELTEGKALGLSHTYANVRINHVINLWGADFDSNGNLKAIYVTDSDSNASIGMKKYFVGVNSAGKVAISAKEIKEDNIGAQVLGLFTLSTGQDSWNQTN
B4: PRT-182 (protein)
chain: B3 chain with I96N, N99G, Q100E, E101Q, L102M, L105V, A107E, E280K
B5: PRT-181 (protein)
chain: B3 chain with I96N, N99G, Q100E, E101Q, L102M, L105V, A107E, F195L, E197N
B6: PRT-179 (protein)
chain: B3 chain with I96N, N99G, Q100E, E101Q, L102M, L105V, A107E, T134A, K135R, H136Q
B7: PRT-176 (protein)
chain: MANQEIRYSEVTPYHITSVWTKGVTPPTDFIKGEDVFHAPYKAHQGWYDITKTFNGGDDLLCGAATAGNMLHWWFDQNKTQIEAYLKKHPEKQKINFNGEQMFDVKEAIDTKNSQTNSELFNYFKEKAFPYLSTKHLGVFPDHVIDMFINGYRLSLTNHGPTPVKRQTKDPRGGIFDAVFGRGDQTKLLTSRHDFKEKTLNDISQLIKQELQSGKALGLSHTYANVRINHVINLWGADFDAEGNLEAIYVTDSDSNASIGMKKYFVGKNASGKVAISAKEIEDENIGAQVLGLFTLSTGKKSWEKTN
B8: PRT-177 (protein)
chain: B7 chain with T17K, S18T, K22D, T25K, T53A, N55D, K79S, E91D, Q185S
B9: PRT-188 (protein)
chain: MANQEIRYSEVTPYHVTSVWTKGVTPPANFRKIVDGNIAYYAAPYVANQGWYDITKTFNGKDDLLCGAATAGNMLHWWFDQNKDQIKRYLEEHPEKQKINFNGEQMFDVKELNTYESDHGYRDKSKLFEYFKEKAFPYLSTKHLGVFPDHVIDMFINGYRLSLTNHGPTPVKEGSKDPRGGIFDAVFTRGDQSKLLTSRHDFKEKNLKEISDLIKKELTEGKALGLSHTYANVRINHVINLWGADFDSNGNLKAIYVTDSDDKKLTIGDERIGMKKYFVGVNSAGKVAISAKEIKEDNIGAQVLGLFTLSTGQDSWNQTN
B10: PRT-180 (protein)
chain: MANQEIRYSEVTPYHVTSVWTKGVTPPANFTQGEDVFHAPYVANQGWYDITKTFNGKDDLLCGAATAGNMLHWWFDQNKDQIKRYLEEHPEKQKINFNGEQMFDVKEAIDTKNHQLDSKLFEYFKEKAFPYLSTKHLGVFPDHVIDMFINGYRLSLTNTQSTDVNEGSKDPRGGIFDAVFTRGDQSKLLTSRHDFKEKNLKEISDLIKKELTEGKALGLSHTYANVRINHVINLWGADFDSNGNLKAIYVTDSDSNASIGMKKYFVGVNSAGKVAISAKEIKEDNIGAQVLGLFTLSTGQDSWNQTN
B11: PRT-184 (protein)
chain: B10 chain with T159H, Q160G, S161P, D163P, N165K, N304Q, Q305K, T306L, N307S
B12: PRT-185 (protein)
chain: MANQEIRYSEVTPYHVTSVWTKGVTPPANFRQGEDVFAAPYVANQGWYDITKTFNGKDDLLCGAATAGNMLHWWFDQNKDQIKRYLEEHPEKQKINFNGEQMFDVKELNTYESDHGYRDKSKLFEYFKEKAFPYLSTKHLGVFPDHVIDMFINGYRLSLTNHGPTPVKEGSKDPRGGIFDAVFTRGDQSKLLTSRHDFKEKNLKEISDLIKKELTEGKALGLSHTYANVRINHVINLWGADFDSNGNLKAIYVTDSDDKKLTIGDERIGMKKYFVGVNSAGKVAISAKEIKEDNIGAQVLGLFTLSTGQDSWNQTN
B13: PRT-189 (protein)
chain: MANQEIRYSEVTPYHVTSVWTKGVTPPDHDFANFTQGEDVFHAPYVANQGWYDITKTFNGKDDLLCGAATAGNMLHWWFDQNKDQIKRYLEEHPEKQKINFNGEQMFDVKEAIDTKNHQLDSKLFEYFKEKAFPYLSTKHLGVFPDHVIDMFINGYRLSLTNHGPTPVKEGSKDPRGGIFDAVFTRGDQSKLLTSRHDFKEKNLKEISDLIKKELTEGKALGLSHTYANVRINHVINLWGADFDSNGNLKAIYVTDSDSNASIGMKKYFVGVNSAGKVAISAKEIKEDNIGAQVLGLFTLSTGQDSWNQTN
B14: PRT-190 (protein)
chain: B13 chain with A32R, N33K, F34I, T35V, Q36D
B15: PRT-183 (protein)
chain: MRNATEAYAKEVPHQVTSVWTKGVTPPANFTQGEDVFHAPYVANQGWYDITKTFNGKDDLLCGAATAGNMLHWWFDQNKDQIKRYLEEHPEKQKINFNGEQMFDVKEAIDTKNHQLDSKLFEYFKEKAFPYLSTKHLGVFPDHVIDMFINGYRLSLTNHGPTPVKEGSKDPRGGIFDAVFTRGDQSKLLTSRHDFKEKNLKEISDLIKKELTEGKALGLSHTYANVRINHVINLWGADFDSNGNLKAIYVTDSDSNASIGMKKYFVGVNSAGKVAISAKEIKEDNIGAQVLGLFTLSTGQDSWNQTN
B16: PRT-187 (protein)
chain: MANQEIRYSEVTPYHVTSVWTKGVTPPADFTYGEDVFHAPYVANQGWYDITKTFNGKDDLLCGAATAGNMLHWWFDQNKEQIEKYLKKHPEKQKIMFGDQELLDVRKVINTKGSQTNSELFNYFRDKAFPGLSARRLGVMPDLVLDMFINGYYLNVYKTQTTDVNRTYQEKDKRGGIFDAVFTRGDQSKLLTSRHDFKEKNLKEISDLIKQELTEGKALGLSHTYANVRINHVINLWGADFDSNGNLKAIYVTDSDSNASIGMKKYFVGVNSAGKVAISAKEIKEDNIGAQVLGLFTLSTGQDIWNQTN

Changes are numbered by the printed parent chain.

For the data set, the target named is pooled human IgG (human IgG1,2,3 and 4).
B1 had an Enzyme Activity Endpoint Assay: Fab'2 of 646 ng/µL, an Enzyme Activity Endpoint Assay: Fc of 218 ng/µL, an Enzyme Activity Endpoint Assay: IgG of 9 ng/µL and an Enzyme Activity Endpoint Assay: scIgG of 0 ng/µL.
The corresponding values for B2 are 497 ng/µL, 147 ng/µL, 0 ng/µL and 0 ng/µL.
On the same counts, the results for B3 are 695 ng/µL, 196 ng/µL, 0 ng/µL and 0 ng/µL.
With B4, the Enzyme Activity Endpoint Assay: Fab'2 stood at 563 ng/µL, the Enzyme Activity Endpoint Assay: Fc was determined as 167 ng/µL, the Enzyme Activity Endpoint Assay: IgG is 0 ng/µL and the Enzyme Activity Endpoint Assay: scIgG worked out at 27 ng/µL.
With B5, the Enzyme Activity Endpoint Assay: Fab'2 came to 890 ng/µL, the Enzyme Activity Endpoint Assay: Fc is 217 ng/µL, the Enzyme Activity Endpoint Assay: IgG was 24 ng/µL and the Enzyme Activity Endpoint Assay: scIgG amounted to 0 ng/µL.
On the same counts, the results for B6 are 697 ng/µL, 187 ng/µL, 0 ng/µL and 0 ng/µL.
On the same counts, the results for B7 are 310 ng/µL, 140 ng/µL, 0 ng/µL and 86 ng/µL.
B8 had an Enzyme Activity Endpoint Assay: Fab'2 of 67 ng/µL, an Enzyme Activity Endpoint Assay: Fc of 105 ng/µL, an Enzyme Activity Endpoint Assay: IgG of 131 ng/µL and an Enzyme Activity Endpoint Assay: scIgG of 426 ng/µL.
For B9, the Enzyme Activity Endpoint Assay: Fab'2 came out at 0 ng/µL, the Enzyme Activity Endpoint Assay: Fc was determined as 40 ng/µL, the Enzyme Activity Endpoint Assay: IgG turned out to be 905 ng/µL and the Enzyme Activity Endpoint Assay: scIgG is 25 ng/µL.
On the same counts, the results for B10 are 690 ng/µL, 197 ng/µL, 0 ng/µL and 0 ng/µL.
The corresponding values for B11 are 629 ng/µL, 165 ng/µL, 0 ng/µL and 0 ng/µL.
The corresponding values for B12 are 0 ng/µL, 45 ng/µL, 365 ng/µL and 152 ng/µL.
B13 came in with an Enzyme Activity Endpoint Assay: Fab'2 of 469 ng/µL, an Enzyme Activity Endpoint Assay: Fc of 307 ng/µL, an Enzyme Activity Endpoint Assay: IgG of 0 ng/µL and an Enzyme Activity Endpoint Assay: scIgG of 101 ng/µL.
On the same counts, the results for B14 are 323 ng/µL, 278 ng/µL, 76 ng/µL and 145 ng/µL.
For the protein B15, the Enzyme Activity Endpoint Assay: Fab'2 came out at 630 ng/µL, the Enzyme Activity Endpoint Assay: Fc was found to be 175 ng/µL, the Enzyme Activity Endpoint Assay: IgG amounted to 0 ng/µL and the Enzyme Activity Endpoint Assay: scIgG turned out to be 0 ng/µL.
B16 returned an Enzyme Activity Endpoint Assay: Fab'2 of 265 ng/µL, an Enzyme Activity Endpoint Assay: Fc of 307 ng/µL, an Enzyme Activity Endpoint Assay: IgG of 115 ng/µL and an Enzyme Activity Endpoint Assay: scIgG of 103 ng/µL.
